The series can be described thus: label from the status in PepcDB records.
“MSLARPLSFHEDRLFPSDPATRSYARGLYALVKDLPIISPHGHTDPSWFATNAPFQDATDLLLAPDHYLFRMLYSQGVSLDALKVRSKAGVPDTDPREAWRVFASHFYLFRGTPSWVWLNHVFSQVFGFTEFLEASNADDYFDRITAALATDAFRPRALFDRFNIETLATTEGPHESLQHHAAIRESGWGGHVITAYRPDAVIDFEDERSPRAFERFAETSGQDVYSWKSYLEAHRLRRQAFIDAGATSSDHGHPTAATADLSDVEAEALFNSLVKGDVTPEKAELFRAQMLTEMAKMSLDDGLVMQIHPGSHRNHNVGLLNSHGRDKGADIPMRTEYVDALKPLLTRLGNDPRLSIILFTLDETTYSRELAPLAGHYPVLKLGPSWWFHDSPEGMMRFREQVTETAGFYNTVGFNDDTRAFLSIPARHDVARRVDSAFLARMVAEHRMDLVEAEELIVDLTYNLPKKAYKLDQRPDWARPATLRAAAEEGHHHHHH”: the protein production entry is reported as “not failed”. As to “MSDTPQAILLMGPTASGKTGLALELARRFPVEIVSVDSALVYRDMDIGTAKPTAEEMAACPHHLIDVISPLQSYSAAQFHADANRLIADIQARGKLPLLVGGTMLYYKALLEGLSDLPQADAALRAELDADAALLGWPAMHARLAELDPATASRLNPNDSQRIHRALEVCLLSGKPMSELIAQGKEAAAGFRFLPLALVPRERGWLHARIAERFRIMLEQGFLDEVSRLRAKYPELTLNLPSMRCVGYRQAWEHQDGLYGHDEFVERGVAATRQLAKRQLTWTRSLDAIPVDAQRDGLAGLLGDAVDDFLAGRPPAESLRYAGDFLEHHHHHH”, the protein production result was “not failed”.

Take “MKPVKPPRINGRVPVLSAQEAVNYIPDEATLCVLGAGGGILEATTLITALADKYKQTQTPRNLSIISPTGLGDRADRGISPLAQEGLVKWALCGHWGQSPRISDLAEQNKIIAYNYPQGVLTQTLRAAAAHQPGIISDIGIGTFVDPRQQGGKLNEVTKEDLIKLVEFDNKEYLYYKAIAPDIAFIRATTCDSEGYATFEDEVMYLDALVIAQAVHNNGGIVMMQVQKMVKKATLHPKSVRIPGYLVDIVVVDPDQSQLYGGAPVNRFISGDFTLDDSTKLSLPLNQRKLVARRALFEMRKGAVGNVGVGIADGIGLVAREEGCADDFILTVETGPIGGITSQGIAFGANVNTRAILDMTSQFDFYHGGGLDVCYLSFAEVDQHGNVGVHKFNGKIMGTGGFIDISATSKKIIFCGTLTAGSLKTEIADGKLNIVQEGRVKKFIRELPEITFSGKIALERGLDVRYITERAVFTLKEDGLHLIEIAPGVDLQKDILDKMDFTPVISPELKLMDERLFIDAAMGFVLPEAAH”: the protein production entry was “not failed”. In the case of “MPYITIEGGALTREQKSELIRKVTEVASEVMQIPMEFFLCTVKELPDENIGIGGRTIDLIKLEHHHHHH”, the protein production entry is listed as “not failed”. To “MRVAIPAEDDRGIKSNVSKHFGRSRYFVFVDIEGEDVKNVEVVEVPFEEHGPGDLPNFIKDHGAKIVLTYGIGRRAIEYFNSLGISVVTGVYGRISDVIKAFIGGKLKIDYDWKEKIEKEH” belongs “not failed”; to “FQQTQDWVFIIDEKISRITANQSMRAVFDWPEEEFDFSDKLLGVSQKRRSFYRKLMLSLKEGEHWRGEELIVTANKDEYHVIINVTVGFSSVTNALHYLFVLTDIS”, “failed”. The value for “SLGELFAVFNEKLTIPEQEALMFLYAYMPTGDVTDYTGDYYLENVRLSDQARREMPWGKEIPDDVFRHFVLPIRVNNENLDDSRRVFYNELKDRVKNLSLHDAVLEVNHWCHEKVIYTPSDARTSAPLASVKTAYGRCGEESTFTVAALRSVGIPARQVYTPRWAHTDDNHAWVEAWVDGKWYFFGACEPEPVLNLGWFNAPASRGMLMHTKVFGRYTGQEEIMYETPNYTEINVIDNYAPTAKGSVLVTDAEGQPVADATVEFKVYNYAEFYTVATKHTDRSGHASLTAGKGDMLVWASKDGRFGYSKLSFGKDNELKITLDKNASETYSLPLDIVPPAEGANLPEVTPEQRTENDRRMAQEDSIRNAYVATFITEEQARTFAKENKLDETETVRLLIASRGNHQTLTDFLSDAVKADKAGQAISLLKVVSAKDLRDVSPEVLNDHLNNSGLPASEDFCSNVLNPRVANEMITPYKAFFRKEIPASEAEAFRKNPQALVEWCKKEITINNELNSQRIPMSPMGVWKARVADEKSRNIFFVSMARSLGIPAWIDEVTGKIQYRTFNDNNLKNGKVYDVDFEAAQQTQAPTGTLVARYRPIPSLSDPKYYSHFTLSKFRNGTFQLLNYDEGDVDMGGGATWSNLLKNGARLDTGYYMMVTGTRMASGAVLANVTFFTIEEGKTTTVDLVMRESKDQVQVIGNFNSESTYLPIGTSEPQSILQTCGRGYYVVAVLGAGQEPTNHALRDIAALSGEFEKWGRKMVLLFPSEEQYKKFRPSEFPGLPSTITYGIDVDGAIQKQIAESMKLPNSTILPMFIIGDTFNRVVFVSQGYTIGLGEQLMKVIHGEG” was “not failed”.

Take “MGNLPALSWGPAGPLARTCGTSYGASDAQDLRRHAKIGSVELTLLGTGAPAGLPRPDCPCAACATALGEAARAATALLVDGTVLLDLTPGAAFAAARAGRSLGGVRQVLLSHPHNGPAVEVPAGLPQPARVPDGRELALLTGHRVRAMPMDAPGTGYAVTGPDGQRLLYLPPGGAPAGLDETVQPYDMVAADVVGRPDALARLRAVGALGPTTDVIAVHLDHDVPPGVELRRRLAAAGARAVPDGTTLTVGVYEDVPDVPRRTLVLGGARSGKSVEAERRLESFPDVLYVATGGSRGGDTEWAERVSVHRERRPGSWRTVETCDLVPLLKEDGPPLLIDCLSLWLTDAMDSVNAWDDDEWAGGGERALRGRVEELTAAVRETGRTVVAVSNEVGSGIVPATASGRRYRDELGRLNAAFAAECEHLLLVVAGQAMVLRGG”: the protein production entry was “failed”.

For “MDSKDESSHVWPTSAEHEQNAAQVHFVPDTGTVAQIVYTDDQVRPPQQVVYTADGASYTSVDGPEHTLVYIHPVEAAQTLFTDPGQVAYVQQDATAQQASLPVHNQVLPSIESVDGSDPLATLQTPLGRLEAKEEEDEDEDEDTEEDEEEDGEDTDLDDWEPDPPRPFDPHDLWCEECNNAHASVCPKHGPLHPIPNRPVLTRARASLPLVLYIDRFLGGVFSKRRIPKRTQFGPVEGPLVRGSELKDCYIHLKVSLDKGDRKERDLHEDLWFELSDETLCNWMMFVRPAQNHLEQNLVAYQYGHHVYYTTIKNVEPKQELKVWYAASYAEFVNQKIHDISEEERKVLREQEKNWPCYECNRRFISSEQLQQHLNSHDEKLDVFSRTRGRGRGRGKRRFGPGRRPGRPPKFIRLEITSENGEKSDDGTQDLLHFPTKEQFDEAEPATLNGLDQPEQTTIPIPQLPQETQSSLEHEPETHTLHLQPQHEESVVPTQSTLTADDMRRAKRIRLELQNAALQHLFIRKSFRPFKCLQCGKAFREKDKLDQHLRFHGREGNCPLTCDLCNKGFISSTSLESHMKLHSDQKTYSCIFCPESFDRLDLLKDHVAIHINDGYFTCPTCKKRFPDFIQVKKHVRSFHSEKIYQCTECDKAFCRPDKLRLHMLRHSDRKDFLCSTCGKQFKRKDKLREHMQRMHNPEREAKKADRISRSKTFKPRITSTDYDSFTFKCRLCMMGFRRRGMLVNHLSKRHPDMKIEEVPELTLPIIKPNRDYFCQYCDKVYKSASKRKAHILKNHPGAELPPSIRKLRPAGPGEPDPMLSTHTQLTGTIATPPVCCPHCSKQYSSKTKMVQHIRKKHPEFAQLSNTIHTPLTTAVISATPAVLTTDSATGETVVTTDLLTQAMTELSQTLTTDYRTPQGDYQRIQYIPVSQSASGLQQPQHIQLQVVQVASATSPHQSQQSTVDVGQLHDPQPYPQHAIQVQHIQVSEPTASAPSSAQVSGQPLSPSAQQAQQGLSPSHIQGSSSTQGQALQQQQQQQQNSSVQHTYLPSAWNSFRGYSSEIQMMTLPPGQFVITDSGVATPVTTGQVKAVTSGHYVLSESQSELEEKQTSALSGGVQVEPPAHSDSLDPQTNSQQQTTQYIITTTTNGNGSSEVHITKP”, the protein production entry is recorded as “failed”. Take “MSYGLIIVLMIILGIGLWHTKKYHRAVVNQVAHVWITKNAFEHTALGMAIVSPDCRFLKVNRAYGEITGYTRPELLKMAVKELTHPEDQEKDTPYLQEVFAGNIHSFTTVKRYIHKNGSTIWVRSTISAVRTERGNLKYFVLEHHHHHH”: the protein production result is on record as “failed”. Regarding “MTVTLKNDYLTVQINEKGAELSSVKANDGIEYIWQADPAVWGRHAPVLFPFVGRLKDDQFQVEDQTYPMGQHGFARDMDFEAVEQDDQHVIMELNSDTETLQKFPFEFKLRLHFTLKDHELIEHYEVVNPDSKKDLLFSIGGHPGFNLNLGDNQIQMEDTHIRIAPKQVYNQIPLKAPYTDPKNPIKFDATTPLDLTHALFKDDAIILDLKGEQITLMTENEVNNHGIAFTVANAPYLGIWSPYPATANFVCLEPWWGIADTVNFNGELKDKLGVNRLAAQETFNQEFSMSFF”, the protein production entry is “failed”.

On to “MSLTIGVIGKSVHPYWSQVEQGVKAAGKALGVDTKFFVPQKEDINAQLQMLESFIAEGVNGIAIAPSDPTAVIPTIKKALEMGIPVVTLDTDSPDSGRYVYIGTDNYQAGYTAGLIMKELLGGKGKVVIGTGSLTAMNSLQRIQGFKDAIKDSEIEIVDILNDEEDGARAVSLAEAALNAHPDLDAFFGVYAYNGPAQALVVKNAGKVGKVKIVCFDTTPDILQYVKEGVIQATMGQRPYMMGYLSVTVLYLMNKIGVQNTLMMLPKVKVDGKVDYVIDTGVDVVTPENLDEYLKKMEELGIPIKEGHHHHHH”, for which the protein production entry was “not failed”. To “MILAVLFANSVGNVLIERFNGVPAEERLHWRSFLVKLGADNLKGVKNEELLVACHKSVYIVYTMLGDVSIFLVGKDEYDELALAETIYIITAAVKDVCGKPPTERVFLDKYGRICLCLDEIVWNGLLENTDKDRIKRLIRLKPPSEV” belongs “failed”; to “MSRKILDRYIAKTVLSAIGLVTLMLVGLQIFILFVNQIDDLGRADYGIVQAGVFVLLQMPYQVYLFFPIASLLGCLVGLGVLANHSELVVMRAAGISIGQITGAVLKASLIVILLITSLGETIVPVMAHYANEYKVSALTGGQALLTPRGVWVRNGNDFVSIASVTHENTLRYVNQFRFDNQHNLKLARQISEVKYVNNSWIAYDVKQTEFAEDHTKAHHFDTLPWDVPVKPEILKITGTNPDEMTLHELNRYLREQQRNHQNVANYKFAFFQRITQPLNTMVMMILAIPFIFGPLRSSTMGSKLLVGAMVGFGFHILNRFFGPVSTVFQWPPELAAFSPTLIFSLIGIYLMRRVR”, “failed”.

Regarding “MTIKTLDISPVGRVEGDLDVRVEIEDGQVVNAWTHAELFRGFEIILRGKDPQAGLIVTPRICGICGASHLTSASWALDTAWNTTVPRNAILARNLGQIVETIQSIPRYFYGLFAIDLTNKKYRSSRFYDEAVRRFAAFTGKSYELGVTISSKPVEIYALFGGQWPHSSYMVPGGVMCAPTLTDITRAWAILEYFRTNWLEPVWLGCSLERYEEIQTYDDFMDWLEADIKHRESDLGFYWRMGLDIGLDRYGAGVGKYVSWGYLPHEDKYQKPTIEGRNAAMIMKSGVYDSFSDTHTLMDHTFARENTTHSWYDEGNADVHPFDRTTKPTQKNTKDFKNAYSWSTAVLHQDFGRLEVGPLARQLVAGGQHGESWQHYDGFILDAFQKMGGASIHLRQLARVHEIVKLYRQAERCLREFVLNDPWYIKPKEKDGRGWGATEASRGSLCHWIDIEGGKIKNYQVIAATTWNVGPRDSEGVRGPIEEALIGTPIEDSRDPVEVGHVARSFDSCLVCTVHAHDAKTGEELARFRTA”, the protein production result is on record as “failed”.

On to “MNVIYPLAVPKGRRLSCEVCEAPAERMCTACTVTYYCGPVHQKADWDSIHAKICQLLIPLRTTMPFYNSEEERQHGLQQLQRRQKHLIEFCYTVAQKYLFEGRHEDAVPAALHSLRFRMNVHGLSSVELVPAYLLLAEASLGLGRIVQAEEYLSQAQWTVLKSTDCSNATHSLLHRNLGLLYIAKKNLDEARYHLANDIYFASCAYGTEDIRTSGGYFHLANIFYGLKKMELADTLYTKVSEIWYTYLNSHYQALLEARSQQTDLLGKQFVNDTGLDEAQEAEAIRILTSTLIIQESTSTKAPQKSILILKTLSILYYLMLECSKAKEYAMKALSLAETYVSEEEQRFIQELLSVISAEEKQP”, for which the protein production entry is listed as “failed”.
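Note: failed if final PepcDB status was selected cloned or expressed and not failed if soluble or beyond.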
